Results as given in article doi:10.1101/2024.08.08.607204, “Mechanism of ASF1 Inhibition by CDAN1” (bioRxiv, 2024).
Several values for one entry are separate records, joined by “and”; a condition that tells them apart may be missing. Equal entries are not always repeated.

B1: Strep-tagged CDAN1 (ST-CDAN1), wildtype (natural protein, human)
chain: MAAVLESLLREEVSVAAVVRWIARSTQGSEDNAGEAAALSSLRALRKEFVPFLLNFLREQSSRVLPQGPPTPAKTPGASAALPGRPGGPPRGSRGARSQLFPPTEAQSTAAEAPLARRGGRRRGPGPARERGGRGLEEGVSGESLPGAGGRRLRGSGSPSRPSLTLSDPPNLSNLEEFPPVGSVPPGPTGTKPSRRINPTPVSEERSLSKPKTCFTSPPISCVPSSQPSALDTSPWGLGLPPGCRSLQEEREMLRKERSKQLQQSPTPTCPTPELGSPLPSRTGSLTDEPADPARVSSRQRLELVALVYSSCIAENLVPNLFLELFFVFQLLTARRMVTAKDSDPELSPAVLDSLESPLFQSIHDCVFFAVQVLECHFQVLSNLDKGTLKLLAENERLLCFSPALQGRLRAAYEGSVAKVSLVMPPSTQAVSFQPETDNRANFSSDRAFHTFKKQRDVFYEVLREWEDHHEEPGWDFEKGLGSRIRAMMGQLSAACSHSHFVRLFQKQLLQMCQSPGGAGGTVLGEAPDVLSMLGADKLGRLWRLQERLMAPQSSGGPCPPPTFPGCQGFFRDFILSASSFQFNQHLMDSLSLKIQELNGLALPQHEPNDEDGESDVDWQGERKQFAVVLLSLRLLAKFLGFVAFLPYRGPEPPPTGELQDSILALRSQVPPVLDVRTLLQRGLQARRAVLTVPWLVEFLSFADHVVPLLEYYRDIFTLLLRLHRSLVLSQESEGKMCFLNKLLLLAVLGWLFQIPTVPEDLFFLEEGPSYAFEVDTVAPEHGLDNAPVVDQQLLYTCCPYIGELRKLLASWVSGSSGRSGGFMRKITPTTTTSLGAQPSQTSQGLQAQLAQAFFHNQPPSLRRTVEFVAERIGSNCVKHIKATLVADLVRQAESLLQEQLVTQGEEGGDPAQLLEILCSQLCPHGAQALALGREFCQRKSPGAVRALLPEETPAAVLSSAENIAVGLATEKACAWLSANITALIRREVKAAVSRTLRAQGPEPAARGERRGCSRACEHHAPLPSHLISEIKDVLSLAVGPRDPDEGVSPEHLEQLLGQLGQTLRCRQFLCPPAEQHLAKCSVELASLLVADQIPILGPPAQYRLERGQARRLLHMLLSLWKEDFQGPVPLQLLLSPRNVGLLADTRPREWDLLLFLLRELVEKGLMGRMEIEACLGSLHQAQWPGDFAEELATLSNLFLAEPHLPEPQLRACELVQPNRGTVLAQS
notes: Codanin-1 (CDAN1) cDNA from Horizon Discovery/Dharmacon; a point mutation of the clone (S421F) was corrected; in pCDNA3.1; Dimer by SEC-MALS and cryo-EM; Same plasmid used in Expi293 (purifications) and in Flp-In 293 T-REx (pulldowns); kept as one molecule; also called WT CDAN1; Strep-CDAN1; source: Expi293, transiently transfected, in lysate and purified in complexes (anti-FLAG, Strep-Tactin); …
B2: FLAG-tagged CDIN1 (F-CDIN1) (natural protein, UniProt Q9Y2V0 1-281, looked up)
chain: MILTKAQYDEIAQCLVSVPPTRQSLRKLKQRFPSQSQATLLSIFSQEYQKHIKRTHAKHHTSEAIESYYQRYLNGVVKNGAAPVLLDLANEVDYAPSLMARLILERFLQEHEETPPSKSIINSMLRDPSQIPDGVLANQVYQCIVNDCCYGPLVDCIKHAIGHEHEVLLRDLLLEKNLSFLDEDQLRAKGYDKTPDFILQVPVAVEGHIIHWIESKASFGDECSHHAYLHDQFWSYWNRFGPGLVIYWYGFIQELDCNRERGILLKACFPTNIVTLCHSIA
notes: CDIN1 (C15orf41) cDNA synthesized by IDT, in pCDNA3.1; source: Expi293, transiently transfected, in lysate and purified in complexes (anti-FLAG, Strep-Tactin); not shown: 3xFLAG, N-terminal, kept
B3: CDAN1 MA3 domain (ST-CDAN1C, residues 1008-1227) (domain or fragment, human, UniProt Q8IWY9 1008-1227, looked up)
chain: GERRGCSRACEHHAPLPSHLISEIKDVLSLAVGPRDPDEGVSPEHLEQLLGQLGQTLRCRQFLCPPAEQHLAKCSVELASLLVADQIPILGPPAQYRLERGQARRLLHMLLSLWKEDFQGPVPLQLLLSPRNVGLLADTRPREWDLLLFLLRELVEKGLMGRMEIEACLGSLHQAQWPGDFAEELATLSNLFLAEPHLPEPQLRACELVQPNRGTVLAQS
notes: Codanin-1 (CDAN1), MA3 domain, residues 1008-1227; also called Strep-CDAN1C; CDAN1 C-term; source: Expi293, transiently transfected, purified in complex with F-CDIN1 (anti-FLAG, Strep-Tactin); not shown: 3xStrep-II-TEV, N-terminal, kept

How the values were obtained:
[1] = target: the molecule itself; assay: SEC-MALS; 200 μg of each purified complex at 5 μM on an SRT SEC-300 column with DAWN HELEOS II detector; dn/dc 0.185
[2] = target: B1; assay: as above; conditions: both partners purified
[3] = target: B2; assay: cryo-EM structure; purified CDAN1 C-term:CDIN1 (C:C) complex crosslinked with BS3, 0.78 mg/mL; single-particle cryo-EM, ~6 Å reconstruction; conditions: both partners purified

B1 was tested, and the “stoichiometry N” value [1] was 2 copies of CDAN1 in the C:A complex and 2 copies of CDAN1 in the C:C:A complex.

In the case of B2, the “stoichiometry N” value [2] is reported as 2 copies of CDIN1 per two copies of CDAN1.

B3: binds [3].
